Source: US10112983B2, “Neuregulin variants and methods of screening and using thereof” (Zensun (Shanghai) Science & Technology, Co., Ltd., priority 2005, dated 2018)

B1: L3A: neuregulin fragment (177-237) with alanine substitution for the 3rd amino acid (protein)
chain: SHAVKCAEKEKTFCVNGGECFMVKDLSNPSRYLCKCPNEFTGDRCQNYVMASFYKAEELYQ
B2: 8A47A: neuregulin double mutant, simultaneous alanine substitutions for the 8th and 47th amino acids of the neuregulin fragment (protein)
chain: SHLVKCAAKEKTFCVNGGECFMVKDLSNPSRYLCKCPNEFTGDRCQAYVMASFYKAEELYQ
B3: D43A: neuregulin fragment (177-237) with alanine substitution for the 43rd amino acid (protein)
chain: SHLVKCAEKEKTFCVNGGECFMVKDLSNPSRYLCKCPNEFTGARCQNYVMASFYKAEELYQ
B4: NRG: the 177-237 amino acids fragment of neuregulin1β2 (SEQ ID NO:1) (protein, listed as Homo sapiens)
chain: SHLVKCAEKEKTFCVNGGECFMVKDLSNPSRYLCKCPNEFTGDRCQNYVMASFYKAEELYQ

Legend:
[1] = biological target: T1, ErbB2&ErbB4 co-expressing COS 7 cells (Homo sapiens, UniProt Q15303); experiment: Signal transduction: AKT phosphorylation by western blot; assay type: cell-based; settings: 10 minutes
T1 construct: expressed in transfected cells; host or cells: COS 7
Protocol: (§1) Similarly, to study the signal transduction ability of neuregulin and its mutations, ErbB2&ErbB3 or ErbB2&ErbB4 co-expressing COS 7 cells are used. The cells are grown to 80% confluence. In the afternoon, after the cells reach 80% confluence, the media is changed to serum free media. Then after 24 hours, different amounts of neuregulin or neuregulin variants are added into separate wells containing the cells. After 10 minutes, loading buffer is added to lyse the cells. The sample is then harvested and loaded into a separate well of gel for electrophoresis and western blot analysis.

[2] = biological target: T2, ErbB2&ErbB3 co-expressing COS 7 cells (Homo sapiens, UniProt P21860); experiment: as above; assay type: cell-based; settings: 10 minutes
T2 construct: expressed in transfected cells; host or cells: COS 7
Protocol: as §1

[3] = biological target: T1, ErbB2&ErbB4 co-expressing COS 7 cells; experiment: Receptor binding affinity assay (competition of bound radiolabeled ligand) on COS7 cells; settings: for receptor binding affinity compared with neuregulin: ErbB2&ErbB4 co-expressing cells; for EC50: Table 7 (footnote defines KD), read-out: EC50, COS7 cells (ErbB2&ErbB4 co-expression)
Protocol: (§2) To study the receptor binding affinity of neuregulin and its mutations, ErbB2&ErbB3 or ErB2&ErB4 co-expressing COS 7 are used. The cells are grown to 80% confluence. In the afternoon, after the cells reach 80% confluence, the media is changed to serum free media.

[4] = biological target: T2, ErbB2&ErbB3 co-expressing COS 7 cells; experiment: as above; settings: for receptor binding affinity compared with neuregulin: ErbB2&ErbB3 co-expressing cells; for EC50: Table 7 (footnote defines KD), read-out: EC50, COS7 cells (ErbB2&ErbB3 co-expression)
Protocol: as §2

Molecule	AKT phosphorylation compared with neuregulin [1]	AKT phosphorylation compared with neuregulin [2]	receptor binding affinity compared with neuregulin [3]	EC50 [3]	receptor binding affinity compared with neuregulin [4]	EC50 [4]
B1	more AKT phosphorylation than neuregulin	less AKT phosphorylation than neuregulin	much lower	1.06 µM	nearly the same receptor binding affinity	1.15 µM
B2	much more AKT phosphorylation than neuregulin	nearly same AKT phosphorylation as neuregulin	–	–	–	–
B3	more AKT phosphorylation than neuregulin	less AKT phosphorylation than neuregulin	much higher	–	nearly the same receptor binding affinity	–
B4	–	–	–	0.282 µM	–	1.41 µM
